Tested on: E. necator
Test: Leaf disc assay, dry inoculum (settling tower), decrease in disease severity / hyphal growth (Example 2)
Details: decrease in disease severity (hyphal growth) relative to untreated control, value ± SE; for % decrease =/− SE TP1: time point 1 (untreated control hyphal growth ≥50%); for % decrease =/− SE TP2: time point 2

B1: GS3617 (nucleic acid)
sense: UCAUGGAAAGAGUAGUUGGAUACGAGAUAUAGAAGGCUGUGAUGCCUUCAGUGCGAUAGAUAUAGCGGGCACAAUCACUCAGUGAUCUAUAAAUUUUGCGAGAGUUAUGCAUUUGCAUUCUUUGCUUUAUUACAUCAAAUGGGUUCAUUAAAGCAUCACUUGCAAUUGUUGCGCAUGCCCCACUUGUAACUAUGUAGCUUCAGUAAGUGCUCAAUAUCAAGGAUAAAUUGGCGAUGUAGUCAUAUAUGUC
antisense: GACAUAUAUGACUACAUCGCCAAUUUAUCCUUGAUAUUGAGCACUUACUGAAGCUACAUAGUUACAAGUGGGGCAUGCGCAACAAUUGCAAGUGAUGCUUUAAUGAACCCAUUUGAUGUAAUAAAGCAAAGAAUGCAAAUGCAUAACUCUCGCAAAAUUUAUAGAUCACUGAGUGAUUGUGCCCGCUAUAUCUAUCGCACUGAAGGCAUCACAGCCUUCUAUAUCUCGUAUCCAACUACUCUUUCCAUGA
% decrease =/− SE TP1: 22 ± 6%
% decrease =/− SE TP2: 14 ± 6%

B2: GS3619 (nucleic acid)
sense: UGUAGAUACAGAUUCGUAUGCGAGAAGUUGAAGUGCUGUAAAUGGUACAGUCAUGGAAAGAGUAGUUGGAUACGAGAUAUAGAAGGCUGUGAUGCCUUCAGUGCGAUAGAUAUAGCGGGCACAAUCACUCAGUGAUCUAUAAAUUUUGCGAGAGUUAUGCAUUUGCAUUCUUUGCUUUAUUACAUCAAAUGGGUUCAUUAAAGCAUCACUUGCAAUUGUUGCGCAUGCCCCACUUGUAACUAUGUAGCUUCAGUAAGUGCUCAAUAUCAAGGAUAAAUUGGCGAUGUAGUCAUAUAUGUCUGAUUCCUUAAUCAAAAUUCUUAAUACAGACCUGCUGCAAUAGGAUGAUG
antisense: CAUCAUCCUAUUGCAGCAGGUCUGUAUUAAGAAUUUUGAUUAAGGAAUCAGACAUAUAUGACUACAUCGCCAAUUUAUCCUUGAUAUUGAGCACUUACUGAAGCUACAUAGUUACAAGUGGGGCAUGCGCAACAAUUGCAAGUGAUGCUUUAAUGAACCCAUUUGAUGUAAUAAAGCAAAGAAUGCAAAUGCAUAACUCUCGCAAAAUUUAUAGAUCACUGAGUGAUUGUGCCCGCUAUAUCUAUCGCACUGAAGGCAUCACAGCCUUCUAUAUCUCGUAUCCAACUACUCUUUCCAUGACUGUACCAUUUACAGCACUUCAACUUCUCGCAUACGAAUCUGUAUCUACA
% decrease =/− SE TP1: 9 ± 2%

B3: GS1813: dsRNA trigger SEQ ID NO 117; gene target hypothetical_protein_BC1G_11193 (nucleic acid)
DNA: CAATACTTATAGACATAATGTATATTGATAATAATCTAGTGTTGCATATCATTGATGAAGCAACTAATTTTCAGGCGGCTAGGTGGCTCAATAATATCTCTGCCAAACATACATGGGATGCCATACGTGCTTGTTGGATTGATACTTACGTTGGGCCCCCAGACTGCATAATAACAGATGCTGGTAAAAACTTCGTTAGCAAGGAATTTAATCAAAATGCATCATCAATGGAAATTTCGGTGAAAAACGTTCCTGTTGAAGCGCATTGGTCAATAGGAAAAATAGAGCGCTATCACTCTTGCATTCGTCGAGCTTATAAAATTATATCAGAAGAACTAGCTGGAACCGGAATCGGCAAAGAGTTTATGCTCCAGATGGCGGTAAAAGCCATAAACGACACAGCCGGACCTAATGGCTTAGTCCCAACTCTTTTAGTTTTTGGAGCTTATCCAAGAATGTCAAATTTAGACCCTCCTATGCCATCCATAATTCAACGGGCTGCTGCAATCAAAAAGGCGATGCTAGAGATAAGTAAATTACGCGCAAAGCTAACCGTGAATAGTGCTCTAAACCATCGAAACGGACCGAATACGAATA
% decrease =/− SE TP1: 11 ± 5%
% decrease =/− SE TP2: 4 ± 5%

B4: GS3620 (nucleic acid)
sense: AGUUGAAGUGCUGUAAAUGGUACAGUCAUGGAAAGAGUAGUUGGAUACGAGAUAUAGAAGGCUGUGAUGCCUUCAGUGCGAUAGAUAUAGCGGGCACAAUCACUCAGUGAUCUAUAAAUUUUGCGAGAGUUAUGCAUUUGCAUUCUUUGCUUUAUUACAUCAAAUGGGUUCAUUAAAGCAUCACUUGCAAUUGUUGCGCAUGCCCCACUUGUAACUAUGUAGCUUCAGUAAGUGCUCAAUAUCAAGGAUAAAUUGGCGAUGUAGUCAUAUAUGUCUGAUUCCUUAAUCAAAAUUCUUAAU
antisense: AUUAAGAAUUUUGAUUAAGGAAUCAGACAUAUAUGACUACAUCGCCAAUUUAUCCUUGAUAUUGAGCACUUACUGAAGCUACAUAGUUACAAGUGGGGCAUGCGCAACAAUUGCAAGUGAUGCUUUAAUGAACCCAUUUGAUGUAAUAAAGCAAAGAAUGCAAAUGCAUAACUCUCGCAAAAUUUAUAGAUCACUGAGUGAUUGUGCCCGCUAUAUCUAUCGCACUGAAGGCAUCACAGCCUUCUAUAUCUCGUAUCCAACUACUCUUUCCAUGACUGUACCAUUUACAGCACUUCAACU
% decrease =/− SE TP1: 6 ± 8%
% decrease =/− SE TP2: 8 ± 7%

B5: GS3615 (nucleic acid)
sense: UAUCAUUAGUAAUCCCUUUAGCGAUGGCGCCAUUAGUACCUUCGGUUGAGUUGCCAACAUUAGAUACUUCGCCAGCACCAUCAGAUACAUGUGUAGUUAAUUCUUCAGAGGUCUUGUCCGGACUAUCUAUUGCGAUCUUUACUGCAAUCUCACGACCUUGAACUUCUUUUCCAUUCAUUUCGGCAACAGCCCUAUUUUGAAGUUCAUUAGAUGCUAAGUUCACAAAGCCAAACCCACGGCCUUUCCGAGG
antisense: CCUCGGAAAGGCCGUGGGUUUGGCUUUGUGAACUUAGCAUCUAAUGAACUUCAAAAUAGGGCUGUUGCCGAAAUGAAUGGAAAAGAAGUUCAAGGUCGUGAGAUUGCAGUAAAGAUCGCAAUAGAUAGUCCGGACAAGACCUCUGAAGAAUUAACUACACAUGUAUCUGAUGGUGCUGGCGAAGUAUCUAAUGUUGGCAACUCAACCGAAGGUACUAAUGGCGCCAUCGCUAAAGGGAUUACUAAUGAUA
% decrease =/− SE TP1: 4 ± 5%
% decrease =/− SE TP2: 5 ± 5%

B6: GS3622 (nucleic acid)
sense: AUGAAGUGCAGGAUUUUUCUCUAUAAGUUUCUUACGUUGUAGCGCCGAAGCUUCUCUAAGUUUAAUCUCUGAUGGAGAUAAAACGUUAUAUAUAGGCGUACCAACAGCAAUUGUCCCCUCUUUAAGUAGAUAUAACUUUCGCUUAUCUUUGUCUCGGUCAGUGCGGAAGUUUGUCCCAGCUUCUGUAAGUUUUACAGCUUUUUCUCGAUUAACUGCUCUUGACACUUGAAGUACGCGACCUUCUAUUGUGUAUAAGCCAUUCUUAUCAGCAGUUUCAUCCUCUAAAAUAGAGUUUUUAGCUUUAACAGCGUUUGCACCACUUUUGAAGGUACGAGGUGCACCAUGGUAACAAGAGUCCGCAUCUUCUUGUCUAUAGAAGCAAACAAAGCCAGUGCCUUUA
antisense: UAAAGGCACUGGCUUUGUUUGCUUCUAUAGACAAGAAGAUGCGGACUCUUGUUACCAUGGUGCACCUCGUACCUUCAAAAGUGGUGCAAACGCUGUUAAAGCUAAAAACUCUAUUUUAGAGGAUGAAACUGCUGAUAAGAAUGGCUUAUACACAAUAGAAGGUCGCGUACUUCAAGUGUCAAGAGCAGUUAAUCGAGAAAAAGCUGUAAAACUUACAGAAGCUGGGACAAACUUCCGCACUGACCGAGACAAAGAUAAGCGAAAGUUAUAUCUACUUAAAGAGGGGACAAUUGCUGUUGGUACGCCUAUAUAUAACGUUUUAUCUCCAUCAGAGAUUAAACUUAGAGAAGCUUCGGCGCUACAACGUAAGAAACUUAUAGAGAAAAAUCCUGCACUUCAU
% decrease =/− SE TP1: 17 ± 4%

B7: GS3616 (nucleic acid)
sense: UUAAAAGUUGCGGUUUAACUUAAGCUGUAGCCGCAACAGUUUCAGCUGUCCCAGCUAGUCCUUCUGAUUGAAGUUUAUCAUUAGUAAUCCCUUUAGCGAUGGCGCCAUUAGUACCUUCGGUUGAGUUGCCAACAUUAGAUACUUCGCCAGCACCAUCAGAUACAUGUGUAGUUAAUUCUUCAGAGGUCUUGUCCGGACUAUCUAUUGCGAUCUUUACUGCAAUCUCACGACCUUGAACUUCUUUUCCAUUCAUUUCGGCAACAGCCCUAUUUUGAAGUUCAUUAGAUGCUAAGUUCACAAAGCCAAACCCACGGCCUUUCCGAGGUUCGUUGCGGGCCUGAAGCUUUUUAACCAUGAAUUUUGGAAUAGGACGCAGAGCAAUUUUGGCAGAUACUGGUUC
antisense: GAACCAGUAUCUGCCAAAAUUGCUCUGCGUCCUAUUCCAAAAUUCAUGGUUAAAAAGCUUCAGGCCCGCAACGAACCUCGGAAAGGCCGUGGGUUUGGCUUUGUGAACUUAGCAUCUAAUGAACUUCAAAAUAGGGCUGUUGCCGAAAUGAAUGGAAAAGAAGUUCAAGGUCGUGAGAUUGCAGUAAAGAUCGCAAUAGAUAGUCCGGACAAGACCUCUGAAGAAUUAACUACACAUGUAUCUGAUGGUGCUGGCGAAGUAUCUAAUGUUGGCAACUCAACCGAAGGUACUAAUGGCGCCAUCGCUAAAGGGAUUACUAAUGAUAAACUUCAAUCAGAAGGACUAGCUGGGACAGCUGAAACUGUUGCGGCUACAGCUUAAGUUAAACCGCAACUUUUAA
% decrease =/− SE TP1: 14 ± 4%

B8: GS3618 (nucleic acid)
sense: CGUAAGCCUUUGAUGGGUUCAGAAAUGUAGAUACAGAUUCGUAUGCGAGAAGUUGAAGUGCUGUAAAUGGUACAGUCAUGGAAAGAGUAGUUGGAUACGAGAUAUAGAAGGCUGUGAUGCCUUCAGUGCGAUAGAUAUAGCGGGCACAAUCACUCAGUGAUCUAUAAAUUUUGCGAGAGUUAUGCAUUUGCAUUCUUUGCUUUAUUACAUCAAAUGGGUUCAUUAAAGCAUCACUUGCAAUUGUUGCGCAUGCCCCACUUGUAACUAUGUAGCUUCAGUAAGUGCUCAAUAUCAAGGAUAAAUUGGCGAUGUAGUCAUAUAUGUCUGAUUCCUUAAUCAAAAUUCUUAAUACAGACCUGCUGCAAUAGGAUGAUGAGCUCCUGUUUGAUUACCUCCCAUG
antisense: CAUGGGAGGUAAUCAAACAGGAGCUCAUCAUCCUAUUGCAGCAGGUCUGUAUUAAGAAUUUUGAUUAAGGAAUCAGACAUAUAUGACUACAUCGCCAAUUUAUCCUUGAUAUUGAGCACUUACUGAAGCUACAUAGUUACAAGUGGGGCAUGCGCAACAAUUGCAAGUGAUGCUUUAAUGAACCCAUUUGAUGUAAUAAAGCAAAGAAUGCAAAUGCAUAACUCUCGCAAAAUUUAUAGAUCACUGAGUGAUUGUGCCCGCUAUAUCUAUCGCACUGAAGGCAUCACAGCCUUCUAUAUCUCGUAUCCAACUACUCUUUCCAUGACUGUACCAUUUACAGCACUUCAACUUCUCGCAUACGAAUCUGUAUCUACAUUUCUGAACCCAUCAAAGGCUUACG
% decrease =/− SE TP1: 27 ± 4%

— patent US12077763B2, “RNA-based control of powdery mildew” (Greenlight Biosciences, Inc., priority 2021, dated 2024)
